Test results as given in patent US20240124586A1 (WUXI BIOLOGICS IRELAND, published 2024).

Target: T1, cynomolgus CD19 on CHO-K1 cells (WBP701.CHO-K1.cpro1.FL.C9) (cynomolgus monkey, UniProt A0A2K5W8L9 20-557)
T1 construct: whole, on cells; also called cynomolgus-CD19 expressing cell; WBP701.CHOK1.cPro1.C9
T1 sequence: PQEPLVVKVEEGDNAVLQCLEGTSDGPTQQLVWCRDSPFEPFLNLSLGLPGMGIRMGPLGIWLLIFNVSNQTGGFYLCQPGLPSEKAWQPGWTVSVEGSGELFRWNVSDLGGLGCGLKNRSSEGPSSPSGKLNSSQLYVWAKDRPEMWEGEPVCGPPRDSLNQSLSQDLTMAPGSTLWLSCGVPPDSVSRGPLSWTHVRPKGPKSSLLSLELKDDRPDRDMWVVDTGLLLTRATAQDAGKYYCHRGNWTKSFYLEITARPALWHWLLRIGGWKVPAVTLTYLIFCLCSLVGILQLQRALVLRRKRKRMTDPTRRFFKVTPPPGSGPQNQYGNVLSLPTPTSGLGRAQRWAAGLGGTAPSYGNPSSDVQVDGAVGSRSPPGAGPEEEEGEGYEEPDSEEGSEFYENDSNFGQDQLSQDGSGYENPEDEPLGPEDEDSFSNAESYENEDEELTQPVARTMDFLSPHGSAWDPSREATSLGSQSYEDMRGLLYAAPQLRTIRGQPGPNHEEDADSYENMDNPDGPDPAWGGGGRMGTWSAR
Experiment: flow cytometry on cynomolgus CD19 CHO-K1 cells
Protocol: Binding of the CD3×CD19 bispecific antibody to Cynomolgus CD19 target protein expressed on CHOK1 cells was determined by flow cytometry analysis. In brief, cynomolgus CD19 over-expressed stable cell line (WBP701.CHOK1.cPro1.C9, WuXi Biologics) were harvested with trypsin and diluted to 1×10⁶ cells/ml in 1% BSA/1×PBS. […] Antibodies serially diluted in 1% BSA/1×PBS were added at 100 ul/well to the pelleted cells and incubated at 4° C. for 1 hour. […] Cells were washed two times with 180 ul/well of 1% BSA/1×PBS by centrifugation at 1500 rpm for 5 minutes at 4° C. […] Cells were then washed two times as described above. After the final wash, cells were resuspended in 80 ul 1% BSA/1×PBS and fluorescence values were measured with a FACS Canto II cytometer (BD Biosciences). The amount of cell surface bound anti-CD19&CD3 bispecific antibody was assessed by measuring the mean fluorescence (MFI). The FACS raw data were analyzed by FlowJo software, wells containing no antibody or secondary antibody only were used to establish background fluorescence. Binding EC50 values were obtained by the four-parameter non-linear regression analysis using GraphPad Prism 5 software.

EC50: 26 nM
B1: W3438-T3U4.E17-1.uIgG4.SP, bispecific anti-CD3 x CD19 (bispecific antibody)
heavy 1: QVQLVQSGAEVKKPGSSVKVSCKASGFAFTDYYIHWVRQAPGQGLEWMGWISPGNVNTKYNENFKGRVTITADKSTSTAYMELSSLRSEDTAVYYCARDGYSLYYFDYWGQGTLVTVLEDLKNVFPPEVAVFEPSEAEISHTQKATLVCLATGFYPDHVELSWWVNGKEVHSGVCTDPQPLKEQPALQDSRYALSSRLRVSATFWQNPRNHFRCQVQFYGLSENDEWTQDRAKPVTQIVSAEAWGRYGPPCPPCPAPEFLGGPSVFLFPPKPKDTLMISRTPEVTCVVVDVSQEDPEVQFNWYVDGVEVHNAKTKPREEQFNSTYRVVSVLTVLHQDWLNGKEYKCKVSNKGLPSSIEKTISKAKGQPREPQVYTLPPCQEEMTKNQVSLWCLVKGFYPSDIAVEWESNGQPENNYKTTPPVLDSDGSFFLYSRLTVDKSRWQEGNVFSCSVMHEALHNHYTQKSLSLSLGK
light 1: DIVMTQSPDSLAVSLGERATINCKSSQSLLNSRTRKNYLAWYQQKPGQPPKLLIYWASTRQSGVPDRFSGSGSGTDFTLTISSLQAEDVAVYYCTQSHTLRTFGGGTKVEIKPDIQNPDPAVYQLRDSKSSDKSVCLFTDFDSQTQVSQSKDSDVYITDKCVLDMRSMDFKSNSAVAWSQKSDFACANAFQNSIIPEDTFFPSPESS
heavy 2: QMQLVQSGPEVKKPGTSVKVSCKASGYAFTSYNMYWVRQARGQRLEWIGYIDPYNGDTTYNQKFKGRVTITRDMSTSTAYMELSSLRSEDTAVYYCLTTAYAMDYWGQGTLVTVSSASTKGPSVFPLAPCSRSTSESTAALGCLVKDYFPEPVTVSWNSGALTSGVHTFPAVLQSSGLYSLSSVVTVPSSSLGTKTYTCNVDHKPSNTKVDKRVESKYGPPCPPCPAPEFLGGPSVFLFPPKPKDTLMISRTPEVTCVVVDVSQEDPEVQFNWYVDGVEVHNAKTKPREEQFNSTYRVVSVLTVLHQDWLNGKEYKCKVSNKGLPSSIEKTISKAKGQPREPQVCTLPPSQEEMTKNQVSLSCAVKGFYPSDIAVEWESNGQPENNYKTTPPVLDSDGSFFLVSRLTVDKSRWQEGNVFSCSVMHEALHNHYTQKSLSLSLGK
light 2: DIQLTQSPSFLSASVGDRVTITCSASSTVNYMHWYQQKPGKAPKLLIYSTSNLASGVPSRFSGSGSGTEFTLTISSLQPEDFATYYCHQWSSYPYTFGQGTKLEIKRTVAAPSVFIFPPSDEQLKSGTASVVCLLNNFYPREAKVQWKVDNALQSGNSQESVTEQDSKDSTYSLSSTLTLSKADYEKHKVYACEVTHQGLSSPVTKSFNRGEC
notes: also called E17-Design_2-QQQQ (IgG4); E17-IgG4; copies: 1 + 1 + 1 + 1
